# Experimental data taken from patent US10617749B1, “Composition of matter and methods for alteration of dendritic cell metabolism to augment cancer vaccine efficacy” (Duke University, priority 2016, dated 2020).
# Entries after “also recorded” stand apart in the source; their conditions may differ.
# B1: Wnt3a: canonical Wnt ligand used to treat DCs (100 ng/mL) (protein, UniProt P56704 19-352, looked up)
# Protein Wnt-3a: SYPIWWSLAVGPQYSSLGSQPILCASIPGLVPKQLRFCRNYVEIMPSVAEGIKIGIQECQHQFRGRRWNCTTVHDSLAIFGPVLDKATRESAFVHAIASAGVAFAVTRSCAEGTAAICGCSSRHQGSPGKGWKWGGCSEDIEFGGMVSREFADARENRPDARSAMNRHNNEAGRQAIASHMHLKCKCHGLSGSCEVKTCWWSQPDFRAIGDFLKDKYDSASEMVVEKHRESRGWVETLRPRYTYFKVPTERDLVYYEASPNFCEPNPETGSFGTRDRTCNVSSHGIDGCDLLCCGRGHNARAERRREKCRCVFHWCCYVSCQECTRVYDVHTCK
# B2: Wnt5a: Wnt ligand used to treat DCs (200 ng/mL) (protein, UniProt P41221 62-380, looked up)
# Protein Wnt-5a: IIGAQPLCSQLAGLSQGQKKLCHLYQDHMQYIGEGAKTGIKECQYQFRHRRWNCSTVDNTSVFGRVMQIGSRETAFTYAVSAAGVVNAMSRACREGELSTCGCSRAARPKDLPRDWLWGGCGDNIDYGYRFAKEFVDARERERIHAKGSYESARILMNLHNNEAGRRTVYNLADVACKCHGVSGSCSLKTCWLQLADFRKVGDALKEKYDSAAAMRLNSRGKLVQVNSRFNSPTTQDLVYIDPSPDYCVRNESTGSLGTQGRLCNKTSEGMDGCELMCCGRGYDQFKTVQTERCHCKFHWCCYVKCKKCTEIVDQFVCK
# How the values were obtained:
# [1] = system: bone marrow-derived DCs (BMDCs); experiment: DC glycolysis, extracellular acidification rate (ECAR); type: cell-based, murine; details: with or without LPS
# Experimental: (§1) DC energy metabolism was measured using the XF^e24 extracellular flux analyzer (Seahorse Bioscience), with the glycolysis stress test kit and the mitochondrial stress test kit as previously described (Everts et al., 2014; Zhao and Klimecki, 2015).
# (§2) Murine bone marrow-derived DCs (BMDCs) were harvested and differentiated as previously described and purified using CD11c microbeads (Miltenyi Biotec) according to manufacturer's protocol. DC purity was monitored by flow cytometry and consistently found to be >95% CD11c+F4/80-. BRAFV600EPTEN−/−-Wnt5aKD and BRAFV600EPTEN−/−-NTC cell lines were generated and cultured as previously described. DC2.4, a murine dendritic cell line was kindly provided by Dr. Kenneth L. Rock (University of Massachusetts Medical School), and cultured as previously described. DC2.4β-cateninKD, DC2.4-CPT1AKD, and DC2.4-NTC stable cell lines were generated using a β-catenin-targeted, CPT1A-targeted, or control shRNA-expressing lentivirus followed by puromycin selection. DCs were treated with Wnt3a (100 ng/mL), Wnt5a (200 ng/mL), LPS (1 μg/mL), 1-MT, 2DG (1 mM), or ETO (100 µM) vs vehicle control either for 24 or 48 hrs prior to their use in both in vitro and in vivo experiments.
# [2] = system: DC-induced CD4+ FoxP3+ Tregs; experiment: In vitro Treg assay; type: cell-based, mouse; details: for DC-mediated Treg differentiation in vitro: pre-treated DCs co-cultured with naïve CD4+ T cells
# Experimental: In vivo Treg assay. DCs (C57, H-2^b) were pre-treated for 48 hours and delivered by intradermal injection into the footpad of Foxp3-mRFP mice. Draining inguinal and popliteal lymph nodes were resected 5 days later and analyzed for CD4^+ Foxp3^+ Tregs. In vitro Treg assay, DCs (Balb/c, H-2^d) were pre-treated for either 24 or 48 hrs, and re-plated at a 1:3 DC:T-cell ratio with purified naïve Foxp3-mRFP(H-2^b) CD4^+ Tcells. These co-cultures were incubated for 6 days and quantitated for CD4^+ FoxP3^+ Tregs by flow cytometry.
# as §2
# [3] = system: bone marrow-derived DCs (BMDCs); experiment: DC oxygen consumption rate (OCR) / OXPHOS, extracellular flux analysis; type: cell-based, murine; details: BMDCs treated with the agent alone vs untreated
# Experimental: as §1, §2
# DC intracellular PpIX = experiment: PpIX flow cytometry analysis; type: cell-based, mouse; details: 48 hours treatment, then 1 mM δ-ALA 4 hrs
# Experimental: Dendritic cells were terminally incubated in the presence of 1 mM δ-aminolevulinic acid (ALA) for 4 hrs. Intracellular PpIX was analyzed by flow cytometry as previously described (Hryhorenko et al., 1998).
# murine DCs = experiment: qrt-PCR / ELISA gene and cytokine expression in murine DCs; type: cell-based; details: for PPAR-γ and CPT1A expression: murine primary DCs; for expression of key glycolytic enzymes (phosphofructokinase, hexokinase, pyruvate kinase): primary DCs
# Experimental: Total RNA was isolated by RNeasy Plus Mini Kit(Qiagen). RNA(500 ng) was used in cDNA Synthesis (iScript, BioRad). Quantification of mRNA for genes involved in PPARγ signaling was performed using Mouse PrimePCR PPAR Array according to the manufacturer's protocol (BioRad). Real-time PCR was performed using an ABI7500 Real-Time PCR system (Life Technologies). Data analysis utilized the PrimePCR Analysis Software (BioRad). Conventional qPCR was performed using validated primers (Table 1) and SsoAdvanced Universal SYBR Green Super mix (BioRad) or Taqman probes (Applied Biosystems) for heme synthesis enzymes.
# Murine IL-6 (eBioscience) and IL-12p40 (Becton Dickinson) ELISAs were performed according to manufacture's protocol.
# [4] = system: human monocyte-derived DC; experiment: PPARγ and CPT1A Western blot in human monocyte-derived DCs; type: cell-based
# From the text: (§3) Primary antibodies including CPT1A (Cell signaling), PPAR-γ (Santa Cruz Biotechnology), β-catenin, β-actin (Millipore), p-AMPK(T172)/AMPK (Cell signaling), p-AKT(T308)/Akt (Cell Signaling) were used at 1:1000. Secondary antibodies including goat anti-rabbit IgG-HRP (Millipore) and goat anti-mouse IgG-HRP (Millipore) were used at 1:5000. Cells were lysed in Laemmli sample buffer after treatment and subjected to SDS-polyacrylamide gel electrophoresis and immunoblot analysis. For immunoprecipitation, cells were lysed in radio immunoprecipitation assay (RIPA) buffer [10 mM sodium phosphate (pH 8.0), 150 mM NaCl, 1% Triton X-100, 1% sodium deoxycholate, and 0.1% SDS in the presence of 1 mM DTT, 1 mM phenylmethylsulfonylfluoride, and a protease inhibitor cocktail (Sigma)], precleared with protein A beads, and then incubated with 1 μg of antibody against β-catenin or isotype control IgG with protein A-agarose beads on a rotator overnight at 4° C. After 3 washes with RIPA buffer, immunoprecipitated complexes were eluted in sample buffer by boiling and subjected to immunoblot analysis. Immunoblots were visualized by chemiluminescence substrate (ThermoFisher) and imaged by a ChemiDoc XRSplus system (BioRad).
# (§4) Human Monocyte-derived Dendritic Cells were generated as previously described.
# Dendritic Cells = experiment: BODIPY and fatty acid uptake assay; type: cell-based, murine; details: TF2-C12 uptake, BODIPY
# Experimental: Dendritic Cells were stained in 0.5 μg/ml BODIPY 493/503 in PBS for 15 min to determine neutral lipid content (Herber et al., 2010). Fatty acid uptake measurement in DCs were performed using a dodecanoic acid fluorescent TF2-C12 fatty acid (Sigma) according to the manufacturer's protocol.
# [5] = system: bone marrow-derived DCs (BMDCs); experiment: Extracellular lactate assay; type: cell-based, murine; details: BMDC culture media 0-48 hours
# Experimental: L-Lactate levels were measured by lactate dehydrogenase conversion of L-lactate+NAD^+ to pyruvate+NADH following treatment with […] (Pesce et al., 1975). Lactate standards and samples were read at NADH specific absorbance 340 nm.
# BMDCs = experiment: Immunoblot of p-AMPK(T172) and p-AKT(T308) in BMDCs; type: cell-based, murine; details: Wnt5a 200 ng/mL
# From the text: All data representative of 3 independent experiments.
# as §3
# [6] = system: human monocyte-derived DCs; experiment: OCR analysis of human monocyte-derived DCs; type: cell-based; details: human monocyte-derived DCs, Wnt5a 48 hours
# Experimental: Human DCs were differentiated from harvested peripheral blood mononuclear cells and pre-treated with Wnt5a 48 hours prior to OCR analysis. Short-term incubation with ETO was performed prior to analysis.
# as §1, §4
# OT-1 CD8+ T cells = experiment: T cell proliferation assay; type: cell-based, mouse; details: SIINFEKL-loaded BMDCs co-incubated with OT-1 splenocytes
# Experimental: Splenocytes of OT-1 mice (H-2^b) were isolated and stained with CellTrace Violet (ThermoFisher). Preconditioned DCs were loaded with ovalbumin peptide SIINFEKL, and co-cultured at a DC:splenocyte ratio of 40,000:120,000 cells for 72 hrs. CD8+ T cell proliferation was measured by the dilution of Cell Trace Violet dye by flow cytometry.
# DC IDO = experiment: IDO enzymatic assay (kynurenine HPLC); type: cell-based, mouse; details: purified DC cultures, Wnt5a or Wnt5a+ETO
# Experimental: DC IDO enzyme activity was measured by the conversion of L-tryptophan to L-kynurenine in conditioned media by HPLC (Pallotta et al., 2011). Intracellular hemin levels were measured using a colorimetric assay kit (BioVision).
# β-catenin-PPAR-γ complex = experiment: β-catenin co-immunoprecipitation in primary DCs; type: cell-based, murine
# From the text: as §3
# DCs = experiment: DC ATP generation; type: cell-based; details: data not shown
molecule,measurement,setting,value
Oc1nc(-c2ccc(C(F)(F)F)cc2)nc2c1CSCC2 [XAV939],DC glycolysis (ECAR),[1],promote DC glycolysis
"O=CC[C@@H](O)[C@H](O)[C@H](O)CO [2-DG, 2-deoxyglucose]",DC-mediated Treg differentiation in vitro,[2],enhancement of DC-dependent Treg expansion; also recorded: enhanced Treg differentiation
Cn1cc(CC(N)C(=O)O)c2ccccc21 (stereo not drawn) [1-MT],DC-dependent Treg differentiation promoted by melanoma-derived conditioned media,[2]; DCs with BRAFV600E-PTEN−/− conditioned media,only modestly suppressed
NC(=O)c1ncn([C@@H]2O[C@H](CO)[C@@H](O)[C@H]2O)c1N [AICAR],DC OXPHOS (OCR),[3],suppresses OXPHOS
CC[C@H]1/C=C/C=C/C[C@@H](C)[C@H](O)[C@@](C)(O)C(=O)[C@@H](C)[C@H](O)[C@@H](C)C(=O)[C@@H](C)[C@H](O)[C@@H](C)/C=C/C(=O)O[C@@H]2[C@H](C)[C@H](CC1)O[C@]1(CC[C@H](C)[C@H](C[C@@H](C)O)O1)[C@H]2C [oligomycin],DC-mediated Treg differentiation in vitro,[2],potently suppressed Wnt5a induction of DC-mediated Treg differentiation; also recorded: almost complete elimination of these Treg populations
B1,DC levels of PpIX,DC intracellular PpIX,failed to enhance PpIX synthesis in DCs
same,DC OXPHOS (OCR),[3],no changes in either DC OXPHOS or glycosis
same,DC glycolysis (ECAR),[1],no changes in either DC OXPHOS or glycosis
same,PPAR-γ and CPT1A expression,murine DCs,failed to induce the expression of both PPAR-γ and CPT1A in DCs
same,"expression of key glycolytic enzymes (phosphofructokinase, hexokinase, pyruvate kinase)",murine DCs; qrt-PCR,promotes the expression of key glycolytic enzymes
B2,PPAR-γ and CPT1A expression,[4],induces the upregulation of PPAR-γ and CPT1A
same,DC levels of PpIX,DC intracellular PpIX,enhances DC levels of the PpIX prosthetic group in a manner that depends on the induction of FAO
same,DC fatty acid uptake and lipid stores,Dendritic Cells,enhance DC fatty acid uptake and lipid stores
same,DC OXPHOS (OCR),[3],strongly promoting DC OXPHOS; also recorded: promotes DC oxidative phosphorylation (OXPHOS)
same,DC glycolysis (ECAR),[1],inhibits DC glycolysis; also recorded: inhibit LPS-mediated DC glycolysis; also recorded: eliminates the glycolytic reserve of DCs while also significantly suppressing the lipopolysaccharide (LPS)-induced glycolytic surge; also recorded: suppresses LPS-induced DC glycolysis
same,IL-6 and IL-12 expression in primary DCs,"murine DCs; BMDCs, qrt-PCR",suppresses IL-6 and IL-12 expression in primary DCs
same,expression of ALAS1 and further PpIX/heme synthesis enzymes,"murine DCs; DCs, qrt-PCR",upregulate the expression of ALAS1 as well as several additional enzymes involved in PpIX synthesis
same,PPAR-γ and CPT1A expression,murine DCs,directly induce CPT1a expression in a PPARγ-dependent manner; also recorded: induces the upregulation of PPAR-γ and CPT1A
same,"expression of key glycolytic enzymes (phosphofructokinase, hexokinase, pyruvate kinase)",murine DCs; qrt-PCR,suppresses the expression of key glycolytic enzymes; also recorded: suppress the expression of the key glycolytic enzymes
same,lactate production,[5],suppress lactate production
same,AMPK activation (Thr-172 phospho-AMPK),BMDCs; 24 and 48 hrs,suppress AMPK activation
same,DC Akt Thr-308 phosphorylation,BMDCs; 48 hrs,no significant impact
same,OCR,[6],induces OCR in human monocyte-derived DCs
same,DC-mediated antigen-specific CD8+ T cell proliferation,OT-1 CD8+ T cells,suppresses LPS-induced DC-mediated antigen-specific T cell proliferation
same,DC IDO enzymatic activity (kynurenine),DC IDO,capable of promoting DC IDO enzymatic activity
same,PPAR-γ binding to β-catenin,β-catenin-PPAR-γ complex,PPAR-γ to bind to β-catenin upon Wnt5a stimulation
same,DC ATP generation,DCs,no net effect on DC ATP generation
